Patent publication US20120100141A1

Target: Mouse GLP-1 receptor (mouse) (UniProt O35659)
Test: cell-based or functional assay

Sequence of Mouse GLP-1 receptor (mouse) (O35659 22-463): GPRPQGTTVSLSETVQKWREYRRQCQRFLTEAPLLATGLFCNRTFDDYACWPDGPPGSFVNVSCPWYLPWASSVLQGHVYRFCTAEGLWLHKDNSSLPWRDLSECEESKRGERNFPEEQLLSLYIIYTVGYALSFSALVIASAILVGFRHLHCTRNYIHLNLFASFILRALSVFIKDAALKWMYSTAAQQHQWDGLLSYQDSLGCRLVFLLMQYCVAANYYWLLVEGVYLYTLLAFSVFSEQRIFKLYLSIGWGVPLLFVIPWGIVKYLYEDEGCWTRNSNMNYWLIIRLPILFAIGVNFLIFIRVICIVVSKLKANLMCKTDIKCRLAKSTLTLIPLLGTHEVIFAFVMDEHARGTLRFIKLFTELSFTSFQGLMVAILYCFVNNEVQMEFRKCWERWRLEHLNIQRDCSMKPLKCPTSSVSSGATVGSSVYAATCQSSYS

pEC50, melanophore functional GLP-1R bioassay: 11.5
Substance: GLP-1 (7-36) (from UniProt P01275 98-127) (peptide)
